# Measurements reported in the DeepSol protein solubility set.
# Assay: soluble on expression in E. coli; label from the status in PepcDB or PDB records
row,Sequence,soluble on expression in E. coli
1,MRQRKDMPHNRLQTGGMTDEPTDIKAEAKPARTSDLRGFIRLLEERGQLRRIRQPVSLVHEITEIHRRVLADGGPALLFEQPVDHEGKVRKMPLLANLFGTRQRIEWGLGLETGGLPALGQKLTELREPRPPKSMAEAWSKLPLLRAALSMRQRNVSRAPVQEKVLTRDAVDLARLPVQWCWPGEPAPLITWPLVITRSPDDPDDINVGIYRMQVLGPDRVIMRWLAHRGGAHHHRLWQARGLDMPVTVAIGADPATILAAVMPLPDHISELGFSGLLRGAKSRIAKALTVPMPVPANAEIVLEGTVSATETAMEGPYGDHTGYYNSVEAFPVMTLSAITMRRDPIYLSTYTGRPPDEPSVLGEAMLEIFLPLVKRQFAEIVDLWMPPEACSYRVMVASIDKRYPGQAKRVMMGLWSMLPQFSYVKLIILVDPDIDVRSWTDVVWALSTRFDASRDTTIINDTPIDYLDFASPKAGLGGKMGLDATRKLPPETEREWGRVLSMTPDVVAKVDLVWRDLGLGERPVDKLAAALEHHHHHH,not soluble
2,MSHKLPSATDKYYFEVLRNEEKSEMLKFLLESFRVDEPLNRASKISCEEIEKCLDGALDRALKTESSILARSQDTHEIVGCMLNSVWRRDESLCTPGEEDKDFEFHTIRKEVAMVAEILNELHESFWSLRPDQDVVLHFEISSVSVNHRRQGLASKFMNWTENKKFLDTFGATGIATEASSLANQALLAKRGYSTIATTLLDTKVDPDTGKPILVCDDGTDRVNLMFKTF,not soluble
3,MSEPPKKPFACAICRNKSSGCHYGVLSCDACKMFFKRTYLMEKYYTCRRQESCYNMDGGNRKCKACRFKKCLEVGMNPELFSRSESQIISTNIPTQLITQDHRNAEFLQKLKILDKTRHEVFKIIDTYENPSFVDLVRQESRLSCYLRPKNISWENTERKLKPWGSLGMLLAVETIKSLDFYPKLLLSDRILLLETVTLKSFHLSVAFDSFSQKKEKILAPDGSEMFPDSLNKMDFCKDLIMRLLTTPVKPLIAMKLTETEYLLLGIIVICNPEIDGLSPSGKAIITAFLQKTINVLLQFCLINNPRSAPSRLLEIISINQILNRQFHASYKLFDALRKQWDPTMSFQKVLVESCKTRGYDLS,not soluble
4,MGSDKIHHHHHHKDNTKVIAHRGYWKTEGSAQNSIRSLERASEIGAYGSEFDVHLTADNVLVVYHDNDIQGKHIQSCTYDELKDLQLSNGEKLPTLEQYLKRAKKLKNIRLIFELKSHDTPERNRDAARLSVQMVKRMKLAKRTDYISFNMDACKEFIRLCPKSEVSYLNGELSPMELKELGFTGLDYHYKVLQSHPDWVKDCKVLGMTSNVWTVDDPKLMEEMIDMGVDFITTDLPEETQKILHSRAQ,not soluble
5,MDYRFGRQYRLLKTDDFSSVFAFRNRRSRDLLQVSRSNGNGLGHPRIGLVVGKKTAKRANERNYMKRVIRDWFRLNKNRLPPQDFVVRVHRKFDRATAKQARAELAQLMFGNPATGCRKQA,not soluble
6,MSLLTVGIVDDNPRDLEKLELIVNNMENVELILKANSADEVYHSIQKTPVDLLITDIEMPGMSGYQLADFIQLNNMKTAVIFVTAKSGYAVHAFELNVHDYILKPFNPDRLIQSIDRFTEKKDAGRVTGRLFIRSDGDLVVVPKAEIIFLERTGRTTTIHTINETYETYQSLGELEGDIRESMFIRSHRSFIINLQYVKRFASYSKKSFVVIFEGSSGKALVTKEKLKYLQENYEGHHHHHH,not soluble
7,AKGDPHVLLTTSAGNIELELDKQKAPVSVQNFVDYVNSGFYNNTTFHRVIPGFMIQGGGFTEQMQQKKPNPPIKNEADNGLRNTRGTIAMARTADKDSATSQFFINVADNAFLDHGQRDFGYAVFGKVVKGMDVADKISQVPTHDVGPYQNVPSKPVVILSATVLP,soluble
8,LAFVGLTIAIVVTETALLFRRYTALKPADLTRLINSENALVVDLSPSSDFEKGHIAGSRSVVESKFDPESNKLLLSAKQSPLVVVCRNGHISAAAAKRLKNAGFEKVYWLDGGIATWKMAEMPLIK,not soluble
9,MRLPHQLTGSRFFSFSDEGEFLKSVSAVVDEEEFVRIGSLVQAGLMPITSKEVLATMLGVNPGIIWSLENKPERYYRRFKIPKGKGEREIVAPKVGLKVIQKWFSVQLQDCARIDDHVFGFVPGRSHIDAASVHTNANWVYSIDLTNFFPSTPINWVASSLINIGYDADSADRISKLCCYRGALAQGSPASPVLSNISMRGIDAALGALAAEMDVRVTRYADDITFSAAGEFPQVLPERLESLFSQTPWKISQEKTYFSEAPVRLKVHGLVVNGNTVKLTKGYRNKLRAYRHVLQTNRCRQEDLARLSGHVRYASQVSSRDDLEHHHHHH,not soluble
